According to publication PMC9876794 (2022):

Experiments:
[1] = biological target: T1, SARS-CoV-2 spike RBD (WT) (Severe acute respiratory syndrome …, UniProt P0DTC2); assay: ELISA; design: unit not given here
[2] = biological target: T1, SARS-CoV-2 spike RBD (WT); assay: BLI

Binder	binding score [1]	Kd [2] [nM]
C2695 (antibody, V domains shown) VH: EVQLVESGGGLAQPGRSLRLSCAASGFKFDDYAMHWVRQAPGQGLEWVSGIDWNSGIIGYADSVMGRFTISRDNAKKSLYLQMNSLRAEDTALYYCAKSGGFGEFKWFDPWGQGTLVTVSS VL: EIVMTQSPVTLSVSPGERATLSCRASQSVSGNLAWYQQKPGQAPRLLIYGASTRATGFPARFSGSGSGTEFTLTISRLQSEDFAVYYCQQYNKWPRTFGQGTKLEIK	45.1	133
D073 (antibody, V domains shown) VH: QLQLQESGPGLVKPSETLSLTCTVSGGSMSSGSYYWGWIRQPPGKGLEWIGSIFYSGSTYYNPSLKSRVTISIDTSKRQFSLNLRSVTAADKAVYYCARQDIMGYSDVWGEGTTVTVSS VL: EIVLTQSPGTLSLSPRERATLSCRASQSITSTYFAWYQQRPGQAPRLLIYDGSRRATGIPDRFSASGSGTDFTLTISGLEAEDFAVYYCQQYLRLPYTFGQGTKLEIK	> 10000	–
D107 (antibody, V domains shown) VH: QVQLVQSGAEVKKPGASVKVSCKASGYTFTSYDINWVRQATGQGLEWMGWMNPNSGNTGYAQKFQGRVTMTRNPSISTAYMELSSLTSDDTAVYYCATALPWDGYNPYYFHYWGQGTLVTVSS VL: not shown	> 10000	–
D054 (antibody, V domains shown) VH: QVQLVQSGAEVKKPGASVKVSCKASGYTFTSYYMHWVRQAPGQGLEWMGIINPSGGSTSYAQKFQGRVTMTRDTSTSTVYMELSSLRSEDTAVYYCARESGTGFGELPKGGPFDYWGQGTLVTVSS VL: not shown	> 10000	–
D165 (antibody, V domains shown) VH: QVQLVQSGAEVKKPGASVKVSCKASGYTFSNYVINWVRQAPGQRPEWMGWINADNGHTVYSQKLQGRVTITTDTSASEAYMELSGLRSEDTAVYYCARGREDYYNNEPYGMDVWGQGTTVTVSS VL: DIQMTQSPSSLSASVGDRVTITCRASQTISNYLNWYQQKPGQAPKLLIFAASSLQTGVPSRFSGSGSGTTFTLTISSLQPEDFATYYCQQSYGSLYTFGQGTKLDIK	1370	117
D058 (antibody, V domains shown) VH: QVQLQESGPGLVKPSETLSLTCTVSGYSISSGYYWGWIRQPPGKGLEWIGSIYHSGSTYYNPSLKSRVTISVDTSKNQFSLKLSSVTAADTAVYYCARDFPLTLYGVLISDAFDIWGQGTMVTVSS VL: SYELTQPPSVSVSPGQTARITCSADALPKQYAYWYQQKPGQAPVLVIYKDSERPSGIPERFSGSSSGTTVTLTISGVQAEDEADYYCQSADSSGKVFGGGTKLTVL	84.8	24.1
D131 (antibody, V domains shown) VH: QVQLVQSGAEVKKPGASVKVSCKASGYTFTSYGISWVRQAPGQGLEWMGWISAYNGNTNYVQKLQGRVTMTTDTSTSTAYMELRSLRSDDTAVYYCARVQYYYGSGSYRSTYYFDYWGQGTLVTVSS VL: QPVLTQSSSASASLGSSVKLTCTLSSGHSSYIIAWHQQQPGKAPRYLMNLEGSGSYNKGSGVPDRFSGSSSGADRYLTISNLQSEDEADYYCETWDSNIWVFGGGTKLTVL	> 10000	–
D044 (antibody, V domains shown) VH: not shown VL: QSVLTQPPSVSGAPGQRVTISCTGSSSNIGAGYDVHWYQQLPGTAPKLLIYGNSNRPSGVPDRFSGSKSGTSASLAITGLQAEDEADYYCQSYDSSLSGYVFGTGTKVTVL	266	56.9
D166 (antibody, V domains shown) VH: EVQLVESGGGLVQPGGSLRLSCAASGFTFSSYDMHWVRQATGKGLEWVSAIGTAGDTYYPGSVKGRFTISRENAKNSLYLQMNSLRAGDTAVYYCARVSYDSSGYYWVFDYWGQGTLVTVSS VL: not shown	2870	–
D030 (antibody, V domains shown) VH: QVQLVQSGAEVKKPGASVKVSCKASGYTFTSYDINWVRQATGQGLEWMGWMNPNSGNTGYAQKFQGRVTMTRNTSISTAYMELSSLRSEDTAVYYCARDGSGPYDILTGYGMDVWGQGTTVTVSS VL: not shown	> 10000	–
D102 (antibody, V domains shown) VH: QVQLVESGGGVVQPGGSLRLSCAASGFTFSSYGMHWVRQAPGKGLEWVAFIRYDGSNKYYADSVKGRFTISRDNSKNTLYLQMNSLRAEDTAVYYCAKTLGYYYDSSGYYLDYWGQGTLVTVSS VL: not shown	22.3	49.1
D079 (antibody, V domains shown) VH: not shown VL: QSALTQPASVSGSPGQSITISCTGTSSDVGGYNYVSWYQQHPGKAPKIMIYDVSNRPSGVFNRFFGSKSGNTASLTIFGLQAEDEADYYCSSYTSSSTLGVFGGGTKLTVL	> 10000	–
D081 (antibody, V domains shown) VH: QVQLQESGPGLVKPSQTLSLTCTVSGGSISSGDYYWSWIRQPPGKGLEWIGYIYYSGSTYYNPSLKSRVTISVDTSKNQFSLKLSSVTAADTAVYYCARVAGIVNWFDPWGQGTLVTVSS VL: NFMLTQPHSVSESPGKTVTISCTGSSGSIASNYVQWYQQRPGSAPTTVIYEDNQRPSGVPDRFSGSIDSSSNSASLTISGLKTEDEADYYCQSYDSSNQVFGGGTKLTVL	> 10000	–
C2726 (antibody, V domains shown) VH: EVQLVQSGAEVKKPGESLKISCKGSGYSFTSYWIGWVRQMPGKGLEWMGIIYPGDSDTRYSPSFQGQVTISADKSISTAYLQWSSLKASDTAMYYCARRTAARTNGVCLDYWGQGTLVTVSS VL: not shown	3440	133
C2744 (antibody, V domains shown) VH: EVQLLESGGGLVQTGGSLRLSCAASGFTFSSYAMSWVRQAPGKGLEWVSAISGTGGSTYYADSVKGRFTISRDHSKNTLYLQMNSLRAEDTAVYYCAKPINMIDPHDAFDIWGQGTMVTVSS VL: not shown	5390	248
D137 (antibody, V domains shown) VH: QVQLVQSGAEVKKPGASVKVSCKASGYTFTSYDINWVRQATGQGLEWMGWMNPNSGNTGYAQKFQGRVTMTRNTSISTAYMELSSLRSEDTAVYYCARAYCSGGSCYSQPWGQGTLVTVSS VL: QSALTQPPSASGSPGQSVTISCTGTSSDVGGYNYVSWYQQHPGKAPKLMIYEVSKRPSGVPDRFSGSKSGNTASLTVSGLQAEDEADYYCSSYAGSNNWVFGGGTKLTVL	395	–
D069 (antibody, V domains shown) VH: QVQLVESGGGVVQPGGSLRLSCAASGFTFNIYGMHWVRQAPGKGLEWVAFIRYDGSNKYYADSVKGRFTISRDNSKNTLYLQMNSLRAEDTAVYYCAKSVGYYASGSYYFDYWGQGTLVTVSS VL: not shown	252	140
D100 (antibody, V domains shown) VH: QVQLVQSGAEVKKPGASVKVSCKASGYTFTSYGISWVRQAPGQGLEWMGWISAYNGNTNYAQKLQGRVTMTTDTSTSTAYMELRSLRSDDTAVYYCARVPDRRETPYYDFWSGYSIFDYWGQGTLVTVSS VL: DIQMTQSPSSLSASVGDRVTITCRASQGISNYLAWFQQKPGKAPKSLIYAASSLQSGVPSKFSGSGSGTDFTLTISSLQPEDFATYYCQQYNSYPLTFGGGTKVEIK	> 10000	530
D001 (antibody, V domains shown) VH: QVQLVESGGGVVQPGRSLRLSCAASGFTFSSYGMHWVRQAPGKGLEWVAVISYDGSNKYYVDSVKGRFTISRDNSKNTLYLQMNSLRAEDTAVYYCAKEGGSYYGGGGYFDYWGQGTLVTVSS VL: DIQMTQSPSSLSASVGDRVTITCQASQDISNYLHWYQQKPGKAPKLLIYDASNLETGVPSRFSGSGSGTDFTLTISSLQPEDIATYYCQQYDNLPYTFGQGTKLEIK	77.6	16.6
C2706 (antibody, V domains shown) VH: EVQLVESGGGVVQPGGSLRLSCAASGFTFSSYGMHWVRQAPGKGLEWVAFIRYDGSNKYYADSVKGRFTISRDNSKNTLYLQMNSLRAEDTAVYYCAKVGGRYSGYEGYFDYWGQGTLVTVSS VL: not shown	> 10000	–
D040 (antibody, V domains shown) VH: QVQLVESGGGVVQPGRSLRLSCAASGFTFSSYGMHWVRQAPGKGLEWVTAISYDGSNKYYADSVRGRFTISRDNSKRTLYLQMNSLRAEDTAVYYCAKGVGPYCSGGSCYSPYFDYWGQGTLVTVSS VL: DIQMTQSPSSLSASIGDRVTITCQANQDISNYLNWYQQKPRKAPKLLIYDASDLETGVPSRFSGSGSGTDFTFTISSLQPEDIATYYCQQSDNLPLTFGGGTKVEIK	7.71	32
D032 (antibody, V domains shown) VH: QVQLVESGGGVVQPGRSLRLSCAASGFTFSSYGMHWVRQAPGKGLEWVAVISYDGSNKYYADSVKGRFTISRDNSKNTLYLQMNSLRAEDTAVYYCAKVETVVDSDYYYYYGMDVWGQGTTVTVSS VL: SYVLTQPPSVSVSPGQTARITCSGDALPKQYAYWYQQKPGQAPVLVIYKDSERPSGIPERFSGSSSGTTVTLTISGVQAEDEADYYCQSADSSGTYWVFGGGTKLTVL	> 10000	–
D184 (antibody, V domains shown) VH: QVQLVQSGAEVKKPGSSVKVSCKASGGTFSSYAISWVRQAPGQGLEWMGGIIPIFGTANYAQKFQGRVTITADESTSTAYMELSSLRSEDTAVYYCARGRGSTYYYYYYMDVWGKGTTVTVSS VL: not shown	8050	–
D162 (antibody, V domains shown) VH: QVQLVESGGGVVQPGGSLRLSCAASGFTFSSYGMHWVRQAPGKGLEWVAFIRYDGSNKYYADSVKGRFTISRDNSKNTLYLQMNSLRAEDTAVYYCAKDQYYYGSGSYPWFDPWGQGTLVTVSS VL: not shown	958	1440
D104 (antibody, V domains shown) VH: QVQLQQWGAGLLKPSETLSLTCAVYGESFSGHYWTWIRQPPGKGLEWIGEINHRGSTDYHASLKSRVSISIDTSKNQFSLRLKSVTAAETAIYYCARGRSAWPRRSFAFWGQGILVTVSS VL: DIQMTQSPSTLSASVGDRVTITCRASQSISTSLAWYQQKPGKAPKLLIYESSTLESGIPSRFSGSGFRTGFTLTISSLQPDDVATYYCQHYNASPYTFGQGTKLEIK	> 10000	–
